# Changes are numbered by the printed parent chain. Where two headings read alike, the source gives them in different places.
# B1: mAb 33.2.2: murine monoclonal anti-R. gnavus lipoglycan antibody; VH SEQ ID NO: 4, VL SEQ ID NO: 9 (antibody, V domains shown)
# VH: EVQLQESGPSLVKPSQTLSLTCSVTGDSITSGYWNWIRKFPGNKLEYLGYINYSGSTYYNPSLRSRISITRDTSKNQYYLQLNAVTTEDTATYYCARYYYHDDSYAMDNWGQGTSVTVSS
# VL: DIQMNQSPSSLSASLGDTITITCHASQNINVWLSWFQQKPGNIPKLLIYKASNLHTGVPSRFSGTGSGTGFTLTISSLQPEDIATYYCQQGQSYPLTFGAGTKLELK
# B2: mAb 34.2.2: murine monoclonal anti-R. gnavus lipoglycan antibody; VH SEQ ID NO: 13, VL SEQ ID NO: 15 (antibody, V domains shown)
# VH: B1 VH with L48M, S56T, R64K, A84S, H101Y, D103S, N109Y
# VL: B1 VL with T65S
# Tests used:
# [1] = test system: intestinal permeability of RG strain colonized mice; details: 0.15 mg/ml in drinking water, 10 days
# Description: For each group mean+/−standard deviation (SD) (FIG. 9A). […] For the bottom panels, significance was tested by paired t test. *p<0.05 was considered statistically significant.
# In vivo assay of intestinal permeability. To assess intestinal permeability, after a 4-hours fasting from food and water, mice were orally gavaged with 4,000-Da fluorescein (FITC)-dextran (FD4) (Sigma-Aldrich, St. Louis, MO) (250 mg/kg body weight) in doses of 200 μl, and blood was collected 3 hours later. The concentration of the FD4 was determined using a fluorimeter with an excitation wavelength of 490 nm and an emission wavelength of 530 nm. To assess concentration, FD4 in serum was then serially diluted to establish a standard curve.
# Leaky gut recovery studies. Zonulin antagonist, larazotide acetate (known as AT-1001, or INN-202), was purchased from BOC Sciences, NY. Individual neonatally-colonized littermates from SPF mice, colonized with different RG strains, were retested after FD4 challenge, and those with abnormal levels then each received 0.15 mg/ml of the zonulin antagonist in drinking water, which was refreshed every day, for 10 consecutive days. After 24 hours rest, intestinal permeability was then retested.
# [2] = test system: bacterial extract of the RG2 strain (CC55_001C); test: Direct binding ELISA, RG2 bacterial extract; parameters: species or system Ruminococcus gnavus; details: extract coated on ELISA plate
# Description: (§1) In this assay, LG or nuclease-treated RG strain extracts were precoated overnight onto the well, then after blocking with bovine serum albumin, the mAbs, or isotype control at 1 μg/ml were incubated for 4 hours, then washed and developed (see below-described methods) (FIG. 15A). Immunoblot with mAb 33.2.3 (FIG. 15B) and immunoblot with 34.2.2 mAb (FIG. 15C), detect antigenically related LG oligobands in extracts of R. gnavus strains isolated from active Lupus nephritis strains. In each panel is shown samples of purified lipoglycan from the Lupus S47-18 strain, and the RG2 strain of R. gnavus. At left, extracts of whole bacteria are shown for the RG1 strain (from a healthy donor), and the Lupus-derived strains; S107-48, S107-86, S47-18, and for the RG2 strain.
# (§2) Assays of antigen-reactive IgG antibodies. A custom multiplex bead-based array for the Magpix platform (Luminex, Austin TX) was created by coupling a variety of highly purified thymic native DNAs, purified cell wall lipoglycan (LG) from the RG2 strain (i.e., IgG anti-RG2 LG (formerly termed LG3) (Azzouz et al., 2019)), and the Lupus RG strain S47-18 (i.e., IgG anti-S47-18 strain LG), recombinant S. aureus proteins, endotoxins, and other bacterial antigens and control ligands, to individual microspheres, adapting the manufacturer's protocol and previous reports (Pelzek et al., 2017; Pelzek et al., 2018b; Radke et al., 2018). For antigen-reactive IgG detection, 1,000 microspheres per analyte per well were premixed, sonicated, and then diluted with addition of 100 μl of serum, as indicated. For ELISA bound IgG antibodies were detected with Fc-gamma-specific anti-murine IgG HRP (eBioscience, San Diego CA), and for multiplex bead-based assay with anti-mouse IgG (Fc-specific) F(ab′)2 PE (Jackson ImmunoResearch, West Grove PA). Data were acquired on a Magpix instrument (Luminex) and reported as mean fluorescence intensity (MFI) values, as previously described (Pelzek et al., 2017; Pelzek et al., 2018a; Radke et al., 2018). Plasma zonulin were quantitated with a commercial ELISA Kit. (MyBioSource, San Diego CA.).
# (§3) Direct binding ELISA. To detect the reactivity of the murine monoclonal antibodies (mAb) […] and mAb 34.2.2 with the different RG strains, the ELISA plates were coated with the bacterial extracts from RG2, S47-18, S107-48, S107-86, RG1 as well as with the purified lipoglycan from the strains RG2 and S47-18. Next, the murine monoclonal antibodies were added at two concentrations (at 100 ng/ml and 25 ng/ml) in duplicate, incubated for 2 h at RT. Binding was detected with goat anti mouse IgG HRP conjugated at 1:10,000 (Jackson ImmunoResearch), then TMB substrate was added to develop the plate.
# [3] = test system: bacterial extract of Lupus strain S47-18; test: Direct binding ELISA, S47-18 bacterial extract; parameters: species or system Ruminococcus gnavus; details: extract coated on ELISA plate
# Description: as §1, §2, §3
# [4] = test system: purified LG from the RG2 strain; test: Direct binding ELISA, purified lipoglycan from RG2 strain; parameters: species or system Ruminococcus gnavus; details: antigen coated on ELISA plate
# Description: as §1, §2, §3
# [5] = test system: extract of Lupus RG strain S107-48; test: Immunoblot, S107-48 extract; format: binding, Ruminococcus gnavus
# Description: (§4) LPS from a Pseudomonas species.
# as §1
# (§5) To generate RG-specific monoclonal antibodies, 10 BALB/c mice were immunized with extract of the (CC55_001C), termed RG2 strain, emulsified in complete Freund's adjuvant and then boosted with lipoglycan (LG) purified from the Lupus S47-18 strain emulsified in incomplete Freund's adjuvant. The spleen from the mouse with the strongest post-immunization was fused with the NS-1 myeloma cells.
# (§6) Immunoblotting. […]
# [6] = test system: purified LG from RG2 (RG2-LG); test: Immunoblot, purified lipoglycan from RG2 strain; format: binding, Ruminococcus gnavus
# Description: as §4, §1
# (§7) Immunoblotting. Electrophoretic separation used Bis-Tris mini gels (Novex, Thermo Fisher) with bacterial extracts loaded at the same concentration, then transferred to membranes, which were incubated with sera diluted at 1:100, and incubated overnight at 4° C. For detection, anti-human IgG biotin conjugated (Jackson ImmunoResearch Labs, USA) was added and developed by IRDye® 800CW Streptavidin (LI-COR®).
# [7] = test system: extract of RG1 strain; test: Immunoblot, RG1 extract; format: binding, Ruminococcus gnavus; details: strain from a healthy donor, lacks the lipoglycan
# Description: as §4, §1, §5, §6
# [8] = test system: extract of the RG2 strain; test: Immunoblot, RG2 extract; format: binding, Ruminococcus gnavus
# Description: as §4, §1, §5, §6
# [9] = test system: bacterial extract of Lupus strain S107-48; test: Direct binding ELISA, S107-48 bacterial extract; parameters: species or system Ruminococcus gnavus; details: extract coated on ELISA plate
# Description: as §1, with “At left, extracts of whole bacteria are shown for the RG1 strain (from a healthy donor), and the Lupus-derived strains; S107-48, S107-86, S47-18, and for the RG2 strain.” left out
# (§8) Assays of antigen-reactive IgG antibodies. […] For ELISA bound IgG antibodies were detected with Fc-gamma-specific anti-murine IgG HRP (eBioscience, San Diego CA), and for multiplex bead-based assay with anti-mouse IgG (Fc-specific) F(ab′)2 PE (Jackson ImmunoResearch, West Grove PA). Data were acquired on a Magpix instrument (Luminex) and reported as mean fluorescence intensity (MFI) values, as previously described (Pelzek et al., 2017; Pelzek et al., 2018a; Radke et al., 2018). Plasma zonulin were quantitated with a commercial ELISA Kit. […]
# (§9) Direct binding ELISA. […] Binding was detected with goat anti mouse IgG HRP conjugated at 1:10,000 (Jackson ImmunoResearch), then TMB substrate was added to develop the plate.
# [10] = test system: purified LG from the S47-18 strain; test: Direct binding ELISA, purified lipoglycan from S47-18 strain; parameters: species or system Ruminococcus gnavus; details: antigen coated on ELISA plate
# Description: as §1, with “At left, extracts of whole bacteria are shown for the RG1 strain (from a healthy donor), and the Lupus-derived strains; S107-48, S107-86, S47-18, and for the RG2 strain.” left out
# as §8, §9
# [11] = test system: purified LG from the S47-18 strain; test: Immunoblot, purified lipoglycan from S47-18 strain; format: binding, Ruminococcus gnavus
# Description: as §1, §7
# [12] = test system: extract of Lupus RG strain S107-86; test: Immunoblot, S107-86 extract; format: binding, Ruminococcus gnavus
# Description: as §1, §7
# [13] = test system: extract of Lupus RG strain S47-18; test: Immunoblot, S47-18 extract; format: binding, Ruminococcus gnavus
# Description: as §4, §1, §5, §6
# [14] = test system: bacterial extract of Lupus strain S107-86; test: Direct binding ELISA, S107-86 bacterial extract; parameters: species or system Ruminococcus gnavus; details: extract coated on ELISA plate
# Description: as §1, §2, §3
# [15] = test system: extract of the RG1 type strain (ATCC29149); test: Direct binding ELISA, RG1 bacterial extract; parameters: species or system Ruminococcus gnavus; details: extract coated on ELISA plate; strain lacks the lipoglycan
# Description: as §1, with “At left, extracts of whole bacteria are shown for the RG1 strain (from a healthy donor), and the Lupus-derived strains; S107-48, S107-86, S47-18, and for the RG2 strain.” left out
# as §8, §9
Molecule,ELISA reactivity with extract of RG2 strain [2],ELISA reactivity with extract of Lupus strain S47-18 [3],ELISA reactivity with purified LG from RG2 strain [4],Immunoblot reactivity with LG oligobands in S107-48 extract [5],Immunoblot reactivity with purified LG from RG2 strain [6],Immunoblot reactivity with RG1 extract [7],Immunoblot reactivity with LG oligobands in RG2 extract [8],ELISA reactivity with extract of Lupus strain S107-48 [9],ELISA reactivity with purified LG from S47-18 strain [10],Immunoblot reactivity with purified LG from S47-18 strain [11],Immunoblot reactivity with LG oligobands in S107-86 extract [12],Immunoblot reactivity with LG oligobands in S47-18 extract [13],ELISA reactivity with extract of Lupus strain S107-86 [14],ELISA reactivity with RG1 type strain extract [15],further results
larazotide acetate,–,–,–,–,–,–,–,–,–,–,–,–,–,–,"Gut barrier function (plasma FD4 after challenge), before vs after treatment ([1]; Lupus S47-18 strain colonized mice, p=0.01): normalized; Gut barrier function (plasma FD4 after challenge), before vs after treatment ([1]; Lupus S107-48 strain colonized mice, p=0.01): normalized; Gut barrier function (plasma FD4 after challenge), before vs after treatment ([1]; RG2 strain colonized mice, p=0.03): normalized"
B1,reactive,reactive,strongly react,recognized oligoband antigen,bound,no reactivity,recognized oligoband antigen,reactive,strongly react,bound,recognized oligoband antigen,recognized oligoband antigen,reactive,non-reactive,ELISA reactivity with extract of RG2 strain ([2]; listed as 33.2.3): reactivity; ELISA reactivity with extract of Lupus strain S47-18 ([3]; listed as 33.2.3): reactivity; ELISA reactivity with purified LG from RG2 strain ([4]; listed as 33.2.3): reactivity; ELISA reactivity with extract of Lupus strain S107-86 ([14]; listed as 33.2.3): reactivity
B2,reactive,reactive,strongly react,recognized oligoband antigen,bound,no reactivity,recognized oligoband antigen,reactive,strongly react,bound,recognized oligoband antigen,recognized oligoband antigen,reactive,non-reactive,ELISA reactivity with extract of RG2 strain ([2]; listed as 34.2.2): reactivity; ELISA reactivity with extract of Lupus strain S47-18 ([3]; listed as 34.2.2): reactivity; ELISA reactivity with purified LG from RG2 strain ([4]; listed as 34.2.2): reactivity; ELISA reactivity with extract of Lupus strain S107-86 ([14]; listed as 34.2.2): reactivity
